The target of test [1] is T1, biotinylated PSMA extracellular domain recombinant protein (Acrobiosystems) (Homo sapiens (Human), UniProt Q04609 44-750, biotinylated).
T1 construct: Bought reagent
Put plainly: capture ELISA, curve fit in GraphPad Prism. On the procedure:
(§1) Goat anti-human-IgG1 (Fc specific) (Jackson ImmunoResearch Laboratories, Inc, Pennsylvania, USA) was coated on wells of ELISA plate in 100 μl PBS at the concentration of 3 μg/ml, 4° C. overnight. The wells were washed twice with 200 μl PBST (PBS, pH7.4, containing 0.05% Tween 20) and then blocked with 400 μl PBS™ (PBST containing 5% dry milk) for 2 h at room temperature. Three-fold serially diluted PSMAb and PSMAbLm starting from 6 nM down to 0.1 pM in 50 μl PBS™ were then incubated with the wells respectively for 1 h at room temperature. After 6 washes with PBST, the wells were incubated with 50 μl biotinylated PSMA extracellular domain recombinant protein (Acrobiosystems, Delaware, USA) at the concentration of 0.5 μg/ml in PBS™ for 1 h at room temperature. After incubation, the wells were washed 6 times using PBST and incubated with 50 μl 1:1000 diluted streptavidin-HRP (BD bioscience, California, USA) in PBS™. After final 6 washes with PBST, colorimetric signals were developed by incubation with 70 μl 3, 3′, 5, 5′-tetramethylbenzidine (TMB, eBioscience, CA, USA) and for 20 min at room temperature, then stopped by incubation with 70 μl 1 M H₂SO₄. The absorbance was measured at 450 nm using a microplate reader (VWR, PA, USA). The binding curves were analyzed using GraphPad Prism 5.0 software.
(§2) CDR3 regions of both heavy and light chains are pivotal for antigen binding. […]
(In general: ELISA stands for enzyme-linked immunosorbent assay.)

In the next test the target is PSMA on PSMA+CHO cells (UniProt Q04609 1-750, limits assumed). The experiment in a line: cell-based or functional assay.
Test [2] addresses T1, biotinylated PSMA extracellular domain …. The experiment in a line: capture ELISA. On the procedure: as §1, §2

T1 sequence (Q04609 44-750): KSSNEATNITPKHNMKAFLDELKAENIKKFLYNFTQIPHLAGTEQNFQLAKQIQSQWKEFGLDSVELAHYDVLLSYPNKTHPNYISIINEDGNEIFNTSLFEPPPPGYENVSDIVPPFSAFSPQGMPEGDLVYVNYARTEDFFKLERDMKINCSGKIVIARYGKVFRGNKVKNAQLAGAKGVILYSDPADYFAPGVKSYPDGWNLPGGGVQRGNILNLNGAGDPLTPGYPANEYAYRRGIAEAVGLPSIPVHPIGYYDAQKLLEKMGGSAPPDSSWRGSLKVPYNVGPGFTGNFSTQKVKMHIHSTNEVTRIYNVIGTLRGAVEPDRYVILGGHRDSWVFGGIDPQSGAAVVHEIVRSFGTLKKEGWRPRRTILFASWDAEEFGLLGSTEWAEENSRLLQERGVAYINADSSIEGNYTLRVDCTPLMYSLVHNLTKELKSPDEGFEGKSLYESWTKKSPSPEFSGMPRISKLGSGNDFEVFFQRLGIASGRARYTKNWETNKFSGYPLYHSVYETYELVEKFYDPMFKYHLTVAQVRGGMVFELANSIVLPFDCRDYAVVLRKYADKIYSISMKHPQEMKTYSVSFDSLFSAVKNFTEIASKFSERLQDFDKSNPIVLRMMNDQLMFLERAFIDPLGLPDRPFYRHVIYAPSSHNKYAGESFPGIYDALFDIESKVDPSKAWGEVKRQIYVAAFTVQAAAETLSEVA
Chain of PSMA on PSMA+CHO cells (Q04609 whole entry, the tested form may be a part): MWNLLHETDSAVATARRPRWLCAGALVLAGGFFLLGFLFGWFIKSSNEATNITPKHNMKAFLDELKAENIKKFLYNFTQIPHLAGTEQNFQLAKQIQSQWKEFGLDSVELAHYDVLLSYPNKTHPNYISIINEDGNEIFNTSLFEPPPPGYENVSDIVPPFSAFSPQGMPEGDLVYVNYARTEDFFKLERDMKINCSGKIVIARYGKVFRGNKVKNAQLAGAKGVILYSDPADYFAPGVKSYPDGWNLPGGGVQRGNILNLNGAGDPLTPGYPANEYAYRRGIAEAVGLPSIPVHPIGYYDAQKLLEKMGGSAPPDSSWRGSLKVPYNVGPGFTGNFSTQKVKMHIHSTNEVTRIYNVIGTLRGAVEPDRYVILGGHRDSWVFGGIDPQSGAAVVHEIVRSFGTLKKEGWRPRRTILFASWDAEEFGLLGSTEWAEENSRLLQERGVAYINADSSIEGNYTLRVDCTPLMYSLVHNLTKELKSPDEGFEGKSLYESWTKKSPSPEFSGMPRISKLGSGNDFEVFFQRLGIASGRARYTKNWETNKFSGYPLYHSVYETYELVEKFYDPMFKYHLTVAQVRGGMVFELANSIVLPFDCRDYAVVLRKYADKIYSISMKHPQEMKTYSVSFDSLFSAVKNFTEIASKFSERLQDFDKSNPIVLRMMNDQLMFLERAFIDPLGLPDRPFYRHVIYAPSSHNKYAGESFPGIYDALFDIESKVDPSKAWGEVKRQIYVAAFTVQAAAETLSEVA

B1: PSMAb (parent anti-PSMA full antibody) (antibody, human IgG1, lambda, V domains shown)
VH: EVQLVESGGALAKPGGSLRLSCAASGFTLSGYAMHWVRQAPGKGLEWVAVISYDGSNKYYADSVKGRFTVSRDNSKNTLFLQMNSLRPEDTAVYYCAKGLTWGLGDNDALDIWGPGTTVTVSS
VL: QSVLTQPPSVSGAPGQSVIISCTGSSSNIGAGSHVHWYQQVPGTAPKLLIYENTNRPSGVPDRFSGSKSGTSGSLAITGLQPEDEADYYCATWDDSLNGVIFGGGTKATVLG
notes: IgG1 with lambda constant region; also called PSMAb-WT; PMSAb-WT
As a reminder, the Kd is the concentration at which binding is half-saturated. As to B1, the Kd in test [1] stood at 109 pM. In the test with PSMA on PSMA+CHO cells, the “Luciferase signal increase fold (ADCC, CD16-Jurkat reporter cells) at 0 pg/ml antibody” value was 1.04 fold; the “Luciferase signal increase fold (ADCC, CD16-Jurkat reporter cells) at 2.286 pg/ml antibody” value stood at 18.4 fold; the “Luciferase signal increase fold (ADCC, CD16-Jurkat reporter cells) at 6.859 pg/ml antibody” value was found to be 30 fold; the “Luciferase signal increase fold (ADCC, CD16-Jurkat reporter cells) at 20.576 pg/ml antibody” value worked out at 43.1 fold.

B2: PSMAb-AF (afucosylated PSMAb) (antibody, human IgG1, lambda, V domains shown)
VH: EVQLVESGGALAKPGGSLRLSCAASGFTLSGYAMHWVRQAPGKGLEWVAVISYDGSNKYYADSVKGRFTVSRDNSKNTLFLQMNSLRPEDTAVYYCAKGLTWGLGDNDALDIWGPGTTVTVSS
VL: QSVLTQPPSVSGAPGQSVIISCTGSSSNIGAGSHVHWYQQVPGTAPKLLIYENTNRPSGVPDRFSGSKSGTSGSLAITGLQPEDEADYYCATWDDSLNGVIFGGGTKATVLG
modifications: afucosylated (expressed in Fut8-/- CHO-K1)
With B2, in the test with PSMA on PSMA+CHO cells, the “Luciferase signal increase fold (ADCC, CD16-Jurkat reporter cells) at 0 pg/ml antibody” value stood at 0.859 fold; the “Luciferase signal increase fold (ADCC, CD16-Jurkat reporter cells) at 2.286 pg/ml antibody” value is 33 fold; the “Luciferase signal increase fold (ADCC, CD16-Jurkat reporter cells) at 6.859 pg/ml antibody” value is 52.9 fold; the “Luciferase signal increase fold (ADCC, CD16-Jurkat reporter cells) at 20.576 pg/ml antibody” value worked out at 55.5 fold.

B3: PSMAbLm-AF (afucosylated PSMAb with N=>S mutation in light chain CDR3 region) (antibody, human IgG1, lambda, V domains shown)
VH: EVQLVESGGALAKPGGSLRLSCAASGFTLSGYAMHWVRQAPGKGLEWVAVISYDGSNKYYADSVKGRFTVSRDNSKNTLFLQMNSLRPEDTAVYYCAKGLTWGLGDNDALDIWGPGTTVTVSS
VL: QSVLTQPPSVSGAPGQSVIISCTGSSSNIGAGSHVHWYQQVPGTAPKLLIYENTNRPSGVPDRFSGSKSGTSGSLAITGLQPEDEADYYCATWDDSLSGVIFGGGTKATVLG
modifications: afucosylated (expressed in Fut8-/- CHO-K1)
B3: in the test with PSMA on PSMA+CHO cells, the “Luciferase signal increase fold (ADCC, CD16-Jurkat reporter cells) at 0 pg/ml antibody” value came to 1.1 fold; the “Luciferase signal increase fold (ADCC, CD16-Jurkat reporter cells) at 2.286 pg/ml antibody” value stood at 38.9 fold; the “Luciferase signal increase fold (ADCC, CD16-Jurkat reporter cells) at 6.859 pg/ml antibody” value stood at 56.6 fold; the “Luciferase signal increase fold (ADCC, CD16-Jurkat reporter cells) at 20.576 pg/ml antibody” value was 54.7 fold.

B4: PSMAbLm (PSMAb with N to S mutation in light chain CDR3) (antibody, human IgG1, lambda, V domains shown)
VH: EVQLVESGGALAKPGGSLRLSCAASGFTLSGYAMHWVRQAPGKGLEWVAVISYDGSNKYYADSVKGRFTVSRDNSKNTLFLQMNSLRPEDTAVYYCAKGLTWGLGDNDALDIWGPGTTVTVSS
VL: QSVLTQPPSVSGAPGQSVIISCTGSSSNIGAGSHVHWYQQVPGTAPKLLIYENTNRPSGVPDRFSGSKSGTSGSLAITGLQPEDEADYYCATWDDSLSGVIFGGGTKATVLG
notes: also called PMSAbLm; full antibody from Mut-gy1-2 scFv
As for B4, in test [1], the dissociation constant (Kd) was determined as 47.9 pM. Also, the “fold higher affinity than PSMAb” value in test [2] is around 2.3 fold.

The record behind these values is patent US20250236680A1 (XI AN ORIMAB BIOTECHNOLOGY, published 2025).
